Test: soluble on expression in E. coli; label from the status in PepcDB or PDB records

Sequence	soluble on expression in E. coli
MGSDKIHHHHHHMSQTTVVNGVNVDQLMATIEQIKAKPEIAQFKFRATNQWMGGTHNQATIKDFYGACAEDDTRKPMVFDLDEPPVLLGENRGANPVEYLLVALSGCLTTSLVAHAAARGIALRGVKSRYEGDIDLRGFLGLSEEVPVGYREIRVFFSIDADLTDGQKEELIRMAQKYSPVYNTVAKPVPVAVLLDRG	not soluble
MGSDKIHHHHHHMSRPADKPQPFYFAYGSNMNPAQIEARCRKPEVVATARLPDHRLGFFGSSKIWDGGEESAQPEPGADLWGVVYRLSFHDAEILDTWQKVWLDGTGPYFHFPTQVFDAEGRNYPVLLYKRDVLGPRQKPSAPYLDHIIAGAMARALPPPYIDLLRAIPTCQASTPVPRKASFNPEFFAGLACQCGD	not soluble
MGSDKIHHHHHHMSSIYSAPILVFDVNETLLDIDTLTPLFTRLFGDENRLREWFAQLVLYSQTMTLSGLYTPFGELGVGALQMTADIHAVTLTEEDIQEFKQRMSETPAHPDVIPALTKLRDAGFRLVTLTNSAPSTSPTRLEKAGLSEFFEQNFSVDSVRQFKPAPAIYQMVASELSVETSELCLVACHIWDTIGAQAAGCQGAFVTRPYNALLSAPNVPKPDFIASDLITLAEHIINHQSS	not soluble
MGSDKIHHHHHHMSSLLQQFHDEISLRGYSARTRNAYLYAITQLQHYANQPLDNITDEQLTAYFRYLNLEWHHSRATLKLQLNGIHFFYEHVLKRDFTIQLSLPKRPHKLPQLLSCQDIAALLYHCQNLKQRAMLALCYGCGLRVSELTHIKVADIDGQRQLLKVCQGKGACDRWVILSPTLLILLRQYWQAYHPVEWLFASTYHDVVYPLHESTFRKALAKAARLASITKPCSPHSLRHAYATHQLQAGMPLHQLQAQLGHHSIKSTERYLHWSPELGHQGCDLLASLGGMPWQPPTI	not soluble
MGSDKIHHHHHHMSSNNRKKLLLMGRSGSGKSSMRSIIFSNYSAFDTRRLGATIDVEHSHLRFLGNMTLNLWDCGGQDVFMENYFTKQKDHIFQMVQVLIHVFDVESTEVLKDIEIFAKALKQLRKYSPDAKIFVLLHKMDLVQLDKREELFQIMMKNLSETSSEFGFPNLIGFPTSIWDESLYKAWSQIVCSLIPNMSNHQSNLKKFKEIMNALEIILFERTTFLVICSSNGENSNENHDSSDNNNVLLDPKRFEKISNIMKNFKQSCTKLKSGFKTLILNNNIYVSELSSNMVCFIVLKDMNIPQELVLENIKKAKEFFQ	not soluble
MGSDKIHHHHHHMSSSSLSSTSTRVTYAVGDFVYFDDTSATDAPYQIRKIEELVKTEKGGVDARCVVYLRRRDIPQHLLKIADQAQRRFDNYYEVDKKKPENFTTKGFIVVNGASEAAPEAAPEATEASAETSETKVKEDTDDVAEKMEEDEECPAPVGQGRTSSTEEPSASDAPAATAKDKKEEKEAKENAKNLKETAEAEATKLIDWGDGGLPLGVDKLTPDQRLKLRQHEIFMTRQSEILPAAAIRGKCRVVLLGDGEEAQNYLPLDDTFYHSLVYDPNAQTLLADK	not soluble
MGSDKIHHHHHHMSSWEQRSHYLIEVAQRSLIGHKTFDLCRSHLVAASQISKGTIYNHFTTEADLVVAVACAEYEEWLAAAKRDMQRYPDPLTRFLYHHCYRLHQMLSQQRYVIERVMPNQALLLQATDSYRQRFEKISTEYNHWNRLTISEIGDIPGFNRAELVKDYLRGAMINSDDANRQADDVQLYCQFSYALSQLMGHSDKRIPTKPAFVHWLSHLPSTSAISAV	not soluble
MGSDKIHHHHHHMSTRESRHPVVSRSQWLAARYYLWLHEKAFTHHRDALTAARRALPWVKVEQDYRFFGPNGALSLADLFAGRSQLLLYHFMFAEGWSEGCPGCSFLADHYDGANLHLAHHDVSLVAVSRAPYAEFQAFRQRMGWQFPWYSSHGSDFNEDFGVSVGSEGQRQYNYEPYEGNESELPGLSAFFREGDGSVYHTYSTYARGLDILVNTYNFLDIAPLGRNEGGTMDWVRHHDRYEGQPDKPHCCHR	not soluble
MGSDKIHHHHHHMSVSIIDRLQAIFQDVRVSEFMNPDVIYVTPDKTLLHVKEIMRIKRISGVPVVDDKKRVVGIVSLEDIIKALEGSYIKDSVEKRMTKNVVCLKETDTLQDAVKTFEKYGYGRFPVVDDEGKLVGIVTKHDIIYFLLAKLGIMYLHDKRMEEVLEKGTSLITGEVLEKGKADFVFHIDYFDVNMIGIGASKLKRFLLERGVDEELARRIAIATYEAEANVVIHSESDGYIYCFIDNEKITVRVEDRGKGIENLELAMREGYSTAPDHIRELGFGAGMGLPNMKRYSDKMVIISEVGKGVIVEMVFFRRDRGEDKGDSGKTGA	not soluble
MGSDKIHHHHHHMSVTQIVTSEDILLKLCHSVSHVLSHTSGSRVTHAAMVQNISSTRLKPDLGCFSIFDGGFSGLVVINFSAASAVEIYRRYMLNMGMPESDLAFSHNSDEVGNVMGELMNQILGDFIGKVSKELQTSISQSQPKMLTINKEITISIDANLDEPVIRRVSFMTESNHIFYLEFAMDKTEFVKTREFELDEEFDPDFLIEQHGNTRSPWSQMAGKGIVADDADDLLDELGI	not soluble
MGSDKIHHHHHHMSVVDPSLIERIIRDDVRAMGAYHVPDSHGLVKLDAMENPYRLPPALRSELAARLGEVALNRYPVPSSEALRAKLKEVMQVPAGMEVLLGNGSDEIISMLALAAARPGAKVMAPVPGFVMYAMSAQFAGLEFVGVPLRADFTLDRGAMLAAMAEHQPAIVYLAYPNNPTGNLFDAADMEAIVRAAQGSVCRSLVVVDEAYQPFAQESWMSRLTDFGNLLVMRTVSKLGLAGIRLGYVAGDPQWLEQLDKVRPPYNVNVLTEATALFALEHVAVLDEQAAQLRAERSRVAEGMAAHGGVTVFPSAANFLLARVPDAAQTFDRLLARKVLIKNVSKMHPLLANCLRVTVSTPEENAQFLEAFAASLQD	not soluble
MGSDKIHHHHHHMSYITTKNQYITVSNNKIAYRELSKGKSDIPLVMLVHLAATLDNWDPKLLDLLAEQHHVIVLDLPGVGASQGKVAPTIPGMAEQAVSIIKALGYEKINLLGLSMGGFIAQEIVRLDSQLVNRLILAGTGPRGGFEVDKVTGKTFRYMLKAGLERVDPKRYIFYNHDEAGRLEAEKVLGRMGQRSAAHADKDMNVPGFLTQLKAIKRWGREPQDDMTFITQPTLIVNGDKDMQVPTENSYTMHEKIKNSQLIIYPNAGHGSIFQNVEDFSKALLAFLEETNA	not soluble
MGSDKIHHHHHHMSYNFEEERVIKEIREKNAKRVLLQFPEGLKYFSIDIVKKLREKLPNVNFIISGEPSWGACDIAEDEAQQVNADLIIHFGHTPYTWYYPKFPTIFINAESNLDISENALHSLENDISKYNGRKISLTATLQHVRLLSKIKSFLEDKGYDIVIGKPSNRFMFDGQVLGCDYKAAEVEADIYVIVSGGLFHALGLGLATNKPTIKLDPYLQKSEDITNDVRKILKVRYGKILQALDKRSWVIIQGVKVGQNRPNMIKYFYDKLTEKGYDVFTVTNKVLTLDILRNLDRNYIDVFLVTSCPRLPIDDLYNYEKPVLTPGEAKMIINNSLEPYIFPW	not soluble
MGSDKIHHHHHHMSYQDGKYQTEAEGLHGPVKVATTITGGKISAVEVLVGAGEYQSKANDVIASEIIAAQSTDVDAVSGATVSSNAIMTAVKKALQEASGESQDKTSEELTTDLAIVAAGPAGLAAAVSAAEQGVKILVFEKEKITGGTANMGMGPLGINSKIQRANFNEITVAEALKNQMEYTHYRVNGRLVARLLQIVCLNYRLVGRHGSQVRRGFPLLQGIQRHLAHR	not soluble
MGSDKIHHHHHHMTAISREVPRTPHDLSLYLTRLGLTAPDLGSAMQPVLDVLVSRTAAVGAGYFQLRDSTLTYQARAASGDLPQGPLMEALLAHGLPPELPLVQALEAADGALFFEDTRLDPQAAGFADLGVLALTAAPVHNQSGRLVGALLSHVFAPHPWSAEERQLVSTVTGLLTLLAARLDAEERERAAHESALRALGLMLEARDTETQGHTDRVTALALRLGRALGLSDTELRDLRWGAYLHDIGKIAIPDAILHCPGTLDLAAWARMQEHVNEGTRLAAQLPFLPRAALDVIACHHECWDGSGYPRGLAGEAIPRHARIFAACDVYDALVSARPYKRAWTHAEATAYLEQRSGHQFDPVIVRALLRVLEDEDSAAANA	not soluble
